Results on 25 sequences are retold here after the Immune Epitope Database (IEDB).

Among the targets are HLA-A*03:01; HLA-A*31:01; HLA-A*33:01; HLA-A*68:01; HLA-A*11:01; HLA-A*02:01.
Holding throughout (test): IEDB peptide-MHC binding, purified MHC/competitive/radioactivity; filed as Kd, often an IC50 or EC50 that approximates it; ≥ and ≤ were set here for values at or beyond the usual limits of such assays
The target of a further assay is HLA-A*02:02. The settings on record: source organism: Plasmodium falciparum.
A further assay has as its target HLA-B*07:02. The settings on record: source organism: Plasmodium falciparum 3D7.
The target of the next assay is HLA-B*35:01. Conditions: source organism: Plasmodium falciparum 3D7.
A further assay has as its target HLA-B*51:01. Conditions: source organism: Plasmodium falciparum 3D7.
For the next assay, the target named is HLA-B*53:01. Conditions: source organism: Plasmodium falciparum 3D7.
In a further assay the target is HLA-B*54:01. Conditions: source organism: Plasmodium falciparum 3D7.
The target in the next assay is HLA-A*02:06. The settings on record: source organism: Plasmodium falciparum.
A further assay addresses HLA-A*02:03. The settings on record: source organism: Plasmodium falciparum.
The target of another assay is HLA-A*68:02. Conditions: source organism: Plasmodium falciparum.
[1] abbreviates: source organism: Plasmodium falciparum 3D7.
Where [2] appears, read: source organism: Plasmodium falciparum.

In general, Kd refers to the equilibrium constant for the complex coming apart. With ALLACAGLAY, the Kd with HLA-A*03:01 (setting [1]) was 0.355 µM; in the assay with HLA-A*31:01 (setting [1]), 5.46 µM; with HLA-A*33:01 (setting [1]), 5.09 µM; in the assay with HLA-A*68:01 (setting [1]) it was not below 10 µM.
Turning to SLYDEHIKK, the Kd in the assay with HLA-A*03:01 (setting [2]) is 0.028 µM; with HLA-A*11:01 (setting [2]), 0.0086 µM; with HLA-A*31:01 (setting [2]), not below 10 µM; with HLA-A*33:01 (setting [2]), not below 10 µM; with HLA-A*68:01 (setting [2]), 0.615 µM.
For KSLYDEHIK, the Kd with HLA-A*03:01 (setting [2]) is not below 10 µM; with HLA-A*11:01 (setting [2]), 0.231 µM; in the assay with HLA-A*31:01 (setting [2]) it was not below 10 µM; in the assay with HLA-A*33:01 (setting [2]) it was not below 10 µM; with HLA-A*68:01 (setting [2]), not below 10 µM.
As for RLHSDASKNK, the Kd with HLA-A*03:01 (setting [1]) is 0.256 µM; in the assay with HLA-A*11:01 (setting [1]) it was 0.6 µM; in the assay with HLA-A*31:01 (setting [1]) it was not below 10 µM; in the assay with HLA-A*33:01 (setting [1]), not below 10 µM; with HLA-A*68:01 (setting [1]) it was not below 10 µM.
GVSENIFLK: the dissociation constant Kd with HLA-A*03:01 (setting [2]) was 0.151 µM; with HLA-A*11:01 (setting [2]) it was 0.005 µM; in the assay with HLA-A*31:01 (setting [2]), 2.25 µM; in the assay with HLA-A*33:01 (setting [2]) it was 8.29 µM; with HLA-A*68:01 (setting [2]) it was 0.01 µM.
With VLLGGVGLVL, in the assay with HLA-A*02:02, the Kd was not below 10 µM.
In the case of SLLSTNLPY, the Kd is 1.15 µM with HLA-A*03:01 (setting [1]); 0.353 µM in the assay with HLA-A*11:01 (setting [1]); not below 10 µM in the assay with HLA-A*31:01 (setting [1]); not below 10 µM in the assay with HLA-A*33:01 (setting [1]); not below 10 µM in the assay with HLA-A*68:01 (setting [1]).
Consider IIRLHSDASK, for which the Kd is 0.324 µM with HLA-A*03:01 (setting [1]); not below 10 µM in the assay with HLA-A*11:01 (setting [1]); not below 10 µM with HLA-A*31:01 (setting [1]); not below 10 µM with HLA-A*33:01 (setting [1]); not below 10 µM with HLA-A*68:01 (setting [1]).
For LLACAGLAY, the Kd is not below 10 µM with HLA-A*31:01 (setting [1]), 6.59 µM with HLA-A*33:01 (setting [1]) and 2.5 µM with HLA-A*68:01 (setting [1]).
For the sequence KSLYDEHIKK, the Kd in the assay with HLA-A*03:01 (setting [2]) is 1 µM; with HLA-A*11:01 (setting [2]), 0.029 µM; in the assay with HLA-A*31:01 (setting [2]) it was not below 10 µM; with HLA-A*33:01 (setting [2]) it was not below 10 µM; with HLA-A*68:01 (setting [2]), not below 10 µM.
HVLSHNSYEK: the dissociation constant (Kd) with HLA-A*03:01 (setting [2]) was 0.407 µM; with HLA-A*11:01 (setting [2]) it was 0.2 µM; with HLA-A*31:01 (setting [2]), not below 10 µM; in the assay with HLA-A*33:01 (setting [2]) it was not below 10 µM.
Take VTCGNGIQVR: the dissociation constant Kd with HLA-A*03:01 (setting [2]) was found to be 6.88 µM; with HLA-A*11:01 (setting [2]), 0.011 µM; in the assay with HLA-A*31:01 (setting [2]) it was 0.015 µM; in the assay with HLA-A*68:01 (setting [2]), 0.444 µM.
For the sequence GLIMVLSFL, the equilibrium dissociation constant (Kd) with HLA-A*02:01 (setting [2]) came out at 0.022 µM.
For the sequence GTGSGVSSKK, the equilibrium dissociation constant (Kd) in the assay with HLA-A*03:01 (setting [2]) was 1.1 µM; with HLA-A*11:01 (setting [2]), 0.353 µM; with HLA-A*31:01 (setting [2]) it was not below 10 µM; in the assay with HLA-A*33:01 (setting [2]), not below 10 µM; with HLA-A*68:01 (setting [2]) it was not below 10 µM.
Take HPSDGKCNL: the dissociation constant Kd was 0.275 µM in the assay with HLA-B*07:02; not below 10 µM with HLA-B*35:01; not below 10 µM in the assay with HLA-B*51:01; 3.32 µM in the assay with HLA-B*53:01; not below 10 µM with HLA-B*54:01.
As for VLYNTEKGR, the Kd with HLA-A*03:01 (setting [2]) is 0.282 µM; with HLA-A*11:01 (setting [2]), 3.16 µM; with HLA-A*31:01 (setting [2]) it was 8.57 µM; with HLA-A*68:01 (setting [2]), 1.23 µM.
Turning to GTGSGVSSK, the Kd with HLA-A*03:01 (setting [2]) is 0.126 µM; with HLA-A*11:01 (setting [2]) it was 0.04 µM; in the assay with HLA-A*31:01 (setting [2]) it was not below 10 µM; in the assay with HLA-A*33:01 (setting [2]), not below 10 µM; with HLA-A*68:01 (setting [2]) it was 3.48 µM.
On to VLSHNSYEK, for which the dissociation constant (Kd) with HLA-A*03:01 (setting [2]) was 0.079 µM; with HLA-A*11:01 (setting [2]), 0.019 µM; with HLA-A*31:01 (setting [2]), not below 10 µM; with HLA-A*33:01 (setting [2]), not below 10 µM; in the assay with HLA-A*68:01 (setting [2]) it was 2.86 µM.
In the case of RINEEKHEK, the dissociation constant Kd is 0.786 µM in the assay with HLA-A*03:01 (setting [2]); 0.04 µM with HLA-A*11:01 (setting [2]); 0.486 µM in the assay with HLA-A*31:01 (setting [2]); not below 10 µM with HLA-A*33:01 (setting [2]); not below 10 µM in the assay with HLA-A*68:01 (setting [2]).
As to FLKENKLNK, the Kd with HLA-A*03:01 (setting [2]) was 0.145 µM; with HLA-A*11:01 (setting [2]), 3.75 µM; with HLA-A*31:01 (setting [2]), not below 10 µM; with HLA-A*33:01 (setting [2]), 2.64 µM; in the assay with HLA-A*68:01 (setting [2]) it was 0.444 µM.
Turning to KILSVFFLA, the Kd with HLA-A*02:06 was determined as 0.008 µM; with HLA-A*03:01 (setting [2]), 0.018 µM; with HLA-A*11:01 (setting [2]), 0.0032 µM; with HLA-A*31:01 (setting [2]), 7.83 µM; with HLA-A*33:01 (setting [2]), 5.92 µM; in the assay with HLA-A*68:01 (setting [2]), 8.89 µM.
As to FLIFFDLFLV, the Kd in the assay with HLA-A*02:01 (setting [1]) worked out at 0.012 µM.
Regarding TPYAGEPAPF, the equilibrium dissociation constant (Kd) is 0.015 µM with HLA-B*51:01, 0.158 µM in the assay with HLA-B*53:01 and not below 10 µM with HLA-B*54:01.
As for FILVNLLIFH, the Kd with HLA-A*03:01 (setting [2]) amounted to 0.733 µM; with HLA-A*11:01 (setting [2]), 1.33 µM; with HLA-A*31:01 (setting [2]) it was 1.96 µM; with HLA-A*33:01 (setting [2]) it was 0.397 µM.
Regarding ILSVSSFLFV, the equilibrium dissociation constant (Kd) worked out at 3.58 µM with HLA-A*02:02, 0.019 µM with HLA-A*02:03, 0.587 µM in the assay with HLA-A*02:06 and 2.1 µM with HLA-A*68:02.
